15 sequences from the DeepSol protein solubility set can be followed below.

A short description of this data set: soluble on expression in E. coli; label from the status in PepcDB or PDB records.
Take “GSFTMADLDDIKDGKDFRTDQPQKNIPFTLKGCGALDWGMQSRLSRIFNPKTGKTVMLAFDHGYFQGPTTGLERIDINIAPLFEHADVLMCTRGILRSVVPPATNRPVVLRASGANSILAELSNEAVALSMDDAVRLNSCAVAAQVYIGSEYEHQSIKNIIQLVDAGMKVGMPTMAVTGVGKDMVRDQRYFSLATRIAAEMGAQIIKTYYVEKGFERIVAGCPVPIVIAGGKKLPEREALEMCWQAIDQGASGVDMGRNIFQSDHPVAMMKAVQAVVHHNETADRAYELYLSEKQ”: the “soluble on expression in E. coli” value is on record as “soluble”.
For the sequence “GSGYREVEYWDQRYQGAADSAPYDWFGDFSSFRALLEPELRPEDRILVLGCGNSALSYELFLGGFPNVTSVDYSSVVVAAMQACYAHVPQLRWETMDVRKLDFPSASFDVVLEKGTLDALLAGERDPWTVSSEGVHTVDQVLSEVSRVLVPGGRFISMTSAAPHFRTRHYAQAYYGWSLRHATYGSGFHFHLYLMHKGGKLSVAQLALGAQILSP”, the “soluble on expression in E. coli” value is “soluble”.
Then “GSHGMRVIIAGFGRFGQITGRLLLSSGVKMVVLDHDPDHIETLRKFGMKVFYGDATRMDLLESAGAAKAEVLINAIDDPQTNLQLTEMVKEHFPHLQIIARARDVDHYIRLRQAGVEKPERETFEGALKTGRLALESLGLGPYEARERADVFRRFNIQMVEEMAMVENDTKARAAVYKRTSAMLSEIITEDREHLSLIQRHGWQGTEEGKHTGNMADEPETKPSSTSGGLVPRGSSGMILIIYAHPYPHHSHANKRMLEQARTLEGVEIRSLYQLYPDFNIDIAAEQEALSRADLIVWQHPMQWYSIPPLLKLWIDKVFSHGWAYGHGGTALHGKHLLWAVTTGGGESHFEIGAHPGFDVLSQPLQATAIYCGLNWLPPFAMHCTFICDDETLEGQARHYKQRLLEWQEAHHG”, with “soluble”; and “GSHMAARRGALIVLEGVDGAGKSTQSRKLVEALCAAGHRAELLRFPERSTEIGKLLSSYLQKKSDVEDHSVHLLFSANRWEQVPLIKEKLSQGVTLVVDRYAFSGVAFTGAKENFSLDWCKQPDVGLPKPDLVLFLQLQLADAAKRGRARGELERYENGAFQERALRCFHQLMKDTTLNWKMVDASKSIEAVHEDIRVLSEDAIATATEKPLGELWK”, with “soluble”.
“GSHMAEPQRHKILCVCCKCDGRIELTVESSAEDLRTLQQLFLSTLSFVCPWCATNQ”: the “soluble on expression in E. coli” value is listed as “soluble”.
Then “GSHMASMTGGQQMGRGSMKFSFELAVNTKKEDAWTYYSQVNQWFVWEGDLEQISLEGEFTTGQKGKMKMEDMPELAFTLVEVRENQCFSDLTATPFGNVLFEHEILENPDGTISLRHSVSLTDSDTTEEALAFLKQIFADVPESVGKLKQILETV”, with “soluble”.
For the sequence “GSHMDSEIQMENLVERKHHRLARSERSGISDRDAKPTASIRDQLHTIVYRYPPTYVLSSEEQDLVWKFRFYLSSHKKALTKFLKCINWKLEDEVTQALWMLANWAPMDVEDALELLSPTFTHPQVRKYAVSRLAQAPDEDLLLYLLQLVQALKYEDPRHIVHLHGCIFPERDVVRSILDDNGSLLDQSSLSDLSATSSGLHASVIPANQRAASVLAAIKSDKSVSPGSAGGSGSGGQGSVALPNPSAPATPGSSSLPCDSNSNALMLAEGISFGSVPANLCTFLIQRACTNATLANYFYWYLSIEVEEVESVRKQDERAHDMYAMVLKMFLKVLENGNFNLRGIFYNLRKQRRFIDELVKLVKLVAKEPGNRNKKTEKFQKLLAEQDMFKVNFTNFEPIPFPLDPEIYITKIVPMRTSLFKSALMPAKLTFVTSIAHHEYAAIFKHGDDLRQDQLILQMITLMDKLLRRENLDLKLTPYKVLATSSKHGFLQYVDSCTVAEVLAREGNIHNFFRKHHPCDNGPYGISAEVMDTYIKSCAGYCVITYLLGVGDRHLDNLLLTTNGKLFHIDFGYILGRDPKPMPPPMKLSKEMVEAMGGISSEHHHEFRKQCYTAYLHLRRHANVMLNLFSLMVDATVPDIALEPDKAVKKVEENLQLGLTDEEAVQHLQSLLDVSITAVMPALVEQIHRFTQYWRK”, the “soluble on expression in E. coli” value is “soluble”.
With “GSHMEVNLRMSWWGGNGRHQVTLKALEEFHKQHPNINVKAEYTGWDGHLSRLTTQIAGGTEPDVMQTNWNWLPIFSKDGTGFYNLFSVKEQLDLAQFDPKELQQTTVNGKLNGIPISVTARIFYFNDATWAKAGLEYPKTWDELLAAGKVFKEKLGDQYYPVVLEHQDTLALIRSYMTQKYNIPTIDEANKKFAYSPEQWVEFFTMYKTMVDNHVMPSTKYYASFGKSNMYEMKPWINGEWAGTYMWNSTITKYSDNLTKPAKLVLGPYPMLPGAKDAGLFFKPAQMLSIGKSTKHPQESAMLINFLLNSKEGVEALGLERGVPLSATAVTQLRASGVIKDEDPSVAGLNMALELPHKMTTSPYFDDPQIVSLFGDAIQYIDYGQKTVQETAEYFNKQGDRILKRAMR” the entry was “soluble”; with “GSHMGGGGGIVLFVDFDYFYAQVEEVLNPSLKGKPVVVCVFSGRFEDSGAVATANYEARKFGVKAGIPIVEAKKILPNAVYLPMRKEVYQQVSSRIMNLLREYSEKIEIASIDEAYLDISDKVRDYREAYNLGLEIKNKILEKEKITVTVGISKNKVFAKIAADMAKPNGIKVIDDEEVKRLIRELDIADVPGIGNITAEKLKKLGINKLVDTLSIEFDKLKGMIGEAKAKYLISLARDEYNEPIRTRVRKSIGRIVTMKRNSRNLEEIKPYLFRAIEESYYKLDKRIPKAIHVVAVTEDLDIVSRGRTFPHGISKETAYSESVKLLQKILEEDERKIRRIGVRFSKFIEAIGLDKFFDT”, “soluble”; with “GSHMGGIEVLGVKTGVDSFTEVECFLNPQMGNPDEHQKGLSKSLAAEKQFTDDSPDKEQLPCYSVARIPLPNINEDLTCGNILMWEAVTVKTEVIGVTAMLNLHSGTQKTHENGAGKPIQGSNFHFFAVGGEPLELQGVLANYRTKYPAQTVTPKNATVDSQQMNTDHKAVLDKDNAYPVECWVPDPSKNENTRYFGTYTGGENVPPVLHITNTATTVLLDEQGVGPLCKADSLYVSAVDICGLFTNTSGTQQWKGLPRYFKITLRKRSVKN”, “soluble”.
“GSHMQGQSPIKDQEMKELIRRSQEGDQEARDEIIEKNMRLVWSVVQRFLNRGYEADDLFQIGCIGLLKSVDKFDLSYDVKFSTYAVPMIIGEIQRFLRDDGTVKVSRSLKEMGNKIRKAKDELSKTRGRAPTVTEIADHLGISPEDVVLAQEAVRLPTSIHETVYENDGDPITLLDQIADADEASWFDKIALKKAIEELDERERLIVYLRYYKDQTQSEVASRLGISQVQMSRLEKKILQHIK”: the “soluble on expression in E. coli” value is given as “soluble”.
Then “GSHMQSYQISSRLMAQEGQRTSVQTSSLIQSLFDFRLAALRIHQDSTAKNASLINALVSRDSSRLDEFFSSVDELELSNAPDLRFISSHDNILWDDGNASFYGIAQQELNKLIRRVAISGNWHLVQTPSEGKSVHILMRRSSLIEAGTGQVVGYLYVGIVLNDNFALLENIRSGSNSENLVLAVDTTPLVSTLKGNEPYSLDYVVHSAKDAMRDSFIVGQTFLEVESVPTYLCVYSIQTNQNVLTLRDNESVPTYLCVYSIQTNQNVRHQ”, with “soluble”.
With “GSHMVKDTLFSTPIAKLGDFIFDENVAEVFPDMIQRSVPGYSNIITAIGMLAERFVTADSNVYDLGCSRGAATLSARRNINQPNVKIIGIDNSQPMVERCRQHIAAYHSEIPVEILCNDIRHVEIKNASMVILNFTLQFLPPEDRIALLTKIYEGLNPNGVLVLSEKFRFEDTKINHLLIDLHHQFKRANGYSELEVSQKRTALENVMRTDSIETHKVRLKNVGFSQVELWFQCFNFGSMIAVK” the entry was “soluble”; with “GSHSLRYFYTAVSRPGLGEPWFIIVGYVDDMQVLRFSSKEETPRMAPWLEQEEADDWEQQTHIVTIQGQLSERNLMTLVHFYNKSMDDSHTLQWLQDCDVEPDRHLCLWYNQLAYDSEDLPTLSENPSSCTVGNSTVPQISQHLEGHCSDVLQKYLEKGKERLLRSDPPKAHVTRHPRPEGDVTLRCWALGFYPADITLTWQKDGEELTQDVEFVETRPAGDGTFQKWAAVVVPLGKVQSYTCHVDHEGLPEPLTLRWEP”, “soluble”.
Then “GSKVEDPKDFPSELLSFLSHAVFSNRTLACFAIYTTKEKAALLYKKIMEKYSVTFISRHNSYNHNILFFLTPHRHRVSAINNYAQKLCTFSFLICKGVNKEYLMYSALTRDPFSVIEESLPGGLKEHDFNPESS”, with “soluble”.
